Reference: patent publication US12043671B2, “Antibodies targeting an amphiregulin-derived cell surface neo-epitope” (Gundersen Lutheran Medical Foundation, Inc., priority 2021, dated 2024)

Experiments:
[1] = biological target: T1, FL AREG (peptide representing uncleaved AREG) (Homo sapiens, UniProt P15514); test: Immunoblot of TRF-conjugated AREG peptides, intact cleavage site; format: binding; conditions: 1 μg/mL antibody, 200 ng TRF-conjugated peptide
T1 construct: a peptide spanning this region (SMKTHSMIDSSLSKIAC); host or cells: synthetic peptide conjugated to transferrin
Description: (§1) Monomethyl auristatin E (MMAE) conjugated 1A3 antibody (1A3-VC-PAB-MMAE) was prepared using a kit (CM11409) from CellMosaic Inc. (Woburn, MA, USA) following the manufacturer's instructions. Maleimide-activated valine-citrulline p-aminobenzylcarbamate (VCPAB) MMAE was coupled directly to the antibody after reduction through alkylation.^13 The specificity of 1A3 and 1A3-VC-PAB-MMAE to peptides representing human cleaved-AREG was confirmed by immunoblotting. Briefly, transferrin (TRF) conjugated peptides representing cleaved and uncleaved AREG (200 ng) were electrophoresed on SDS-PAGE gels, transferred to PVDF membrane and probed with 1 μg/mL of 1A3 and 1A3-VC-PAB-MMAE. Horseradish peroxidase-conjugated goat anti-rabbit IgG was used. Antibody binding was detected with enhanced chemiluminescence (ECL; Amersham, Arlington Heights, IL, USA). Furthermore, the characterization and purity of 1A3-VC-PAB-MMAE were analyzed using hydrophobic interaction chromatography (HIC) and size-exclusion chromatography (Cell Mosaic).

MCF7-F xenografts = test: Orthotopic MCF7-F endocrine-resistant xenograft in NSG mice; format: in vivo, mouse
Excerpt: (§2) In Vivo Antitumor Activity Studies: The animal experiments were approved by the Institutional Animal Care and Use Committee of University of Wisconsin La Crosse (La Crosse, Wisconsin, USA). Four-week-old female NOD.Cg-Prkdc^scid II2rg^tm1Wjl/SzJ mice (NSG; The Jackson Laboratory) were acclimated for 1 week before the experiments. For MCF7 breast cancer xenograft model, the mice were implanted subcutaneously with 0.72-mg 17β-estradiol 90-day release tablets (Innovative Research of America) 3 days prior to cell injection. […] Firefly luciferase expressing MCF7 and MCF7-F cells (2×10^6 cells in a 1:1 mixture of serum-free DMEM and Matrigel) were injected orthotopically into the fourth inguinal mammary fat pad of each mouse. Once the tumors were well established, each cell line cohort was divided into three groups (n=5). Mean tumor volume at the start of treatment was 111 mm^3 for the MCF7 cohorts and 119 mm^3 for the MCF7-F cohorts. The mice were treated by intraperitoneal injection every 4 days for a total of six doses with unconjugated or MMAE conjugated anti-cleaved-AREG 1A3 antibody (5 mg/kg), or vehicle control (PBS). Tumor volumes were calculated from caliper data by using the formula: Volume (mm^3)=(Length×Width^2)/2. Mice were imaged weekly with the in vivo FX PRO imaging system (Carestream Molecular Imaging, Woodbridge, CA, USA) after injecting luciferin (150 mg/kg body weight). Tumor volume and body weight were monitored once a week. Statistical Analysis:
(§3) To test in vivo efficacy of 1A3-MMAE, human breast cancer cell lines expressing luciferase were injected orthotopically into NSG mice (one tumor in each inguinal mammary gland). Once the average tumor size reached approximately 100-125 mm^3, mice were randomized to one of three treatment groups: PBS, 1A3 (5 mg/kg) or 1A3-MMAE (5 mg/kg). Mice received intraperitoneal injections every 4 days for six total injections and were monitored for tumor progression or regression. Similar experiments were performed with MCF7 (FIGS. 5A, 5B, and 5C, left panels) and MCF7-F (FIGS. 5A, 5B, and 5C, right panels) xenografts.

[2] = biological target: T2, Trunc AREG (fragment that remains cell-bound after cleavage by ADAM17) (Homo sapiens, UniProt P15514); test: Immunoblot of TRF-conjugated AREG peptides, cleaved mimic; format: binding; conditions: 1 μg/mL antibody, 200 ng TRF-conjugated peptide
T2 construct: host or cells: synthetic peptide conjugated to transferrin
Description: as §1

cleaved-AREG peptide = biological target: T3, cleaved-AREG peptide (Homo sapiens, UniProt P15514); test: ELISA binding of 1A3 and 1A3-VC-PAB-MMAE to cleaved-AREG peptide; conditions: 0.001-1 μg/mL
T3 construct: host or cells: synthetic peptide
Description: Maxisorp flat bottom 96-well plates (Thermo Fisher Scientific) were coated with 5 μg/mL cleaved-AREG peptide at 4° C. overnight. After washing thrice with PBST (PBS with 0.05% Tween20) and blocking for 2 h at RT with 5% non-fat dry milk in PBST, various concentrations of 1A3 and 1A3-VC-PAB-MMAE (0.001, 0.01, 0.1, 1 μg/mL) were added to the wells and incubated for 2 h at RT. The wells were washed four times with PBST and were incubated at RT with Goat anti-rabbit IgG (H+L) Cross-adsorbed-HRP conjugate secondary Ab (ThermoFisher G-21234) for 1 h. One-Step™ Turbo™ B-ELISA Substrate Solution (Thermo Fisher Scientific) was added to the wells for color development, incubated for 15 min and the reaction was stopped by adding 2 M H2SO4.

MCF7-F cells = test: Clonogenic assay; format: cell-based, human; conditions: 25 or 50 nM, 72 h then 14 days
Description: (§4) MCF7 breast cancer cells were plated in 48-well plates, allowed to attach overnight and treated with 12.5, 25 or 50 nM of 1A3-VC-PAB-MMAE for 72 h. A vehicle treated well served as control. After removing the ADC-containing medium, cells were washed using PBS, trypsinized and plated at a density of 1000 cells/well in 12-well plates. The cells were cultured for 14 days, with fresh medium addition every 3 days. The colonies were stained with 0.5% crystal violet solution. The number of colonies per well was counted.

MCF7 cells = test: Clonogenic assay; format: cell-based, human; conditions: MCF7, 25 or 50 nM, 72 h then 14 days
Description: as §4

MCF-7 cells = test: Tubulin staining (microtubule integrity); format: cell-based, human; conditions: 48 h treatment
Description: FIGS. 4A-4E. In vitro 1A3-MMAE cytotoxicity in MCF-7 (FIG. 4A) and MCF-7F (FIG. 4B) cells measured by MTT assay after treatment with 1A3-MMAE, 1A3 or MMAE. FIG. 4C: Clonogenic growth of MCF-7 or MCF-7F cells after exposure to 1A3-MMAE and replating. FIG. 4D: The quantification of clonogenic growth assays in FIG. 4C. (FIG. 4E). Tubulin staining of MCF-7 cells after 48 h treatment with MMAE, 1A3, 1A3-MMAE (40× magnification).

MCF7 xenografts = test: Orthotopic MCF7 breast cancer xenograft in NSG mice; format: in vivo, mouse
Excerpt: as §2, §3

[3] = tested on: MCF7-F (fulvestrant-resistant MCF7) breast cancer cells; test: MTT cytotoxicity assay; conditions: 1.56-200 nM, 72 h
Description: (§5) The cells were seeded at a density of 5000 cells/well in 96-well plates. Approximately 24 h after cell seeding, the cells were treated with varying doses (1.56, 3.125, 6.25, 12.5, 25, 50, 100 and 200 nM) of MMAE, 1A3 and 1A3-VC-PAB-MMAE. Untreated cells were used as control. After incubating for 72 h, the medium was aspirated and 50 μL of serum-free media and 50 μL of MTT solution (5 mg/mL solution in PBS) was added into each well; the cells were then incubated for 3 h at 37° C. The formazan crystals formed were dissolved with 4 mM HCl, 0.1% NP40 in isopropanol. The absorbance was measured at 590 nm using VersaMax Microplate Reader (Molecular Devices LLC, San Jose, California, USA). The assays were performed in triplicate.

MCF7 breast cancer cells = test: MTT cytotoxicity assay; conditions: MCF7, 1.56-200 nM, 72 h
Description: as §5

B1: 1A3-MMAE: Monomethyl auristatin E (MMAE) conjugated 1A3 antibody via valine-citrulline p-aminobenzylcarbamate linker (conjugate)
VH: QSVKESEGRLVTPGTPLRLTCTVAGYSLSRYHMCWVRQAPGKGLEWIGMIGGSGRTDYASWAKGRFTISKTSTTVDLKITSPTTEDTATYFCSTVYTDSDGDFWGPGTLVTVSS
VL: AELDMTQTPSSKSVPVGGTVTINCQASESVYSNDRLAWFQQKPGQPPKLLIYYASTLASGVPSRFKGSGSGTQFTLTISDLECADAATYYCQSCYDMSSYGVAFGGGTELEIL
reaction with peptide representing uncleaved AREG by immunoblot [1]: did not react | longitudinal luciferase imaging of xenografts (MCF7-F xenografts; 5 mg/kg): decreased in both volume and signal | tumor volume response by caliper measurements (MCF7-F xenografts; 5 mg/kg i.p. every 4 days, six doses): strong tumor shrinkage | xenografts cleared to sub-detectable levels (MCF7-F xenografts; 5 mg/kg, 10 xenografts): 10 | tumors recurred after follow-up (MCF7-F xenografts; 5 mg/kg, 204-day follow-up period): 10/10 | tumors returned to a size seen prior to treatment (MCF7-F xenografts; 204-day follow-up): only one tumor | re-appearance of a lesion after the end of dosing (representative animal) (MCF7-F xenografts; luciferase imaging): 70 days | recognition of truncated AREG peptide by immunoblot [2]: specifically recognized | binding to cleaved AREG peptide, unconjugated vs MMAE-conjugated (cleaved-AREG peptide): no substantial difference in binding | clonogenic survival (number of colonies relative to control) (MCF7-F cells): dose-dependent effect on survival | clonogenic survival (number of colonies relative to control) (MCF7 cells): dose-dependent effect on survival | tubulin disruption (microtubule integrity) (MCF-7 cells): exhibited tubulin disruption | longitudinal luciferase imaging of xenografts (MCF7 xenografts; MCF7, 5 mg/kg): decreased in both volume and signal | xenografts in which tumor volume decreased (maximum response) (MCF7 xenografts; MCF7, 5 mg/kg): 8/10 | xenografts in which tumor volume increased (maximum response) (MCF7 xenografts; MCF7, 5 mg/kg): 2/10 | tumor volume response by caliper measurements (MCF7 xenografts; MCF7, 5 mg/kg i.p. every 4 days, six doses): strong tumor shrinkage | cytotoxicity by MTT assay [3]: considerable cytotoxicity | cytotoxicity by MTT assay (MCF7 breast cancer cells): considerable cytotoxicity
